Results on two molecules are retold here after patent publication US10078082B2, “Detection of free and protein-bound non-human gal-alpha(1-3)-gal epitope” (National University of Ireland, Galway, priority 2012, dated 2018).

Where “and” joins values, the source holds several entries; their conditions need not be identical. Equal values may be shown once.

One may read the Tm as the temperature at which the thermal transition is half complete.

A short description of data set [1]: scFv-based competitive ELISA, free Gal-α-(1→3)-Gal as standard, immobilized Gal-α-(1→3)-Gal-BSA. It counts as binding. The settings on record: for ED50: free Gal-α-(1→3)-Gal disaccharide standard, plates coated with Gal-α-(1→3)-Gal-BSA 10 μg/ml, FIG. 6. The procedure: FIG. 6: Standard curves for competitive ELISA given by scFv clones G12, A4, and A11. Plates were coated with immobilized Gal-α-(1→3)-Gal-BSA [10 μg/ml] and incubated with 2.5 μg/ml of the scFvs in the presence of an increasing concentrations of free Gal-α-(1→3)-Gal. The error bars indicate the standard error of the mean of triplicate determinations. Each scFv was evaluated in a competitive ELISA format using free Gal-α-(1,3)-Gal as standard. Microtitre plate wells were coated and blocked as previously described. Standard solutions were prepared in PBS (pH 7.2), ranging in concentration from 2 μg/ml (5.84 μM) to 20 mg/ml (58.4 mM). For the assay, 50 μl of each standard and buffer blank were added to designated wells in triplicate, followed by 50 μl of a sub-saturating concentration (1 μg/ml) of the appropriate scFv, giving a final standard concentration in the assay of 1 μg/ml (2.92 μM) to 10 mg/ml (29.2 mM). The plate was incubated for 1 hour at 37° C. with shaking After washing, bound scFv was detected as previously described. The ratios of the OD for each standard versus the OD given by the blank (B/Bo) were plotted versus standard concentration and standard curve plotted using SigmaPlot (v11, Systat Software Inc). The detection limits were determined as the concentration corresponding to the mean response for zero standard minus three times the standard deviation (SD). Inhibition of scFv by a panel of free sugars. scFv binding to Gal-α-(1→3)-Gal-BSA was determined against a panel of 21 free form sugars; D-Cellibiose, Melibiose, D-Raffinose, Lactulose, Palatinose, β-Gentibiose, D+ Trehalose, D+ Turanose, L− Fructose, D+ Glucose, Sucrose, Galacto-N-biose, 4β-Galactobiose, gal-α(1-3)-gal-β-(1-4)-gal, gal-α(1-3)-gal-β-(1-4)-glc, gal-α(1-3)-gal-β-(1-4)-gal-all-3)-gal, Laminarbiose, β1-4-D-Xylobiose, N-Acetyl-D-glucoseamine (GlcNAc), Galactose, N-Acetyl-D-lactosamine (LacNAc), (sourced from Sigma Aldrich and Dextra, UK). Inhibitions were performed by serial dilutions of free sugars and a sub-saturating concentration scFv added to each dilution and pre-incubated for 60 minutes at 37° C., prior to performing ELISA against Gal-α-(1→3)-Gal-BSA as used throughout. The percent binding of the scFv was plotted against the […], and the 50% effective dose determined (ED50; dose of free sugar causing 50% displacement of the scFv).
In general terms: An ELISA detects its analyte on a solid surface through an enzyme-linked reagent.

A short description of data set [2]: NGC microarray specificity analysis (over 50 structures). It counts as binding. The settings on record: FIG. 8. From the text: FIG. 8: Comparison of the specificity of selected scFv fragments A4, A11 and G12 against a panel of related NGCs compared directly to the specificity binding pattern of the lectin GS-1-B4, considered as highly specific for α-Gal residues.
The spectacular specificity of the scFvs has also been determined by analysis on an NGC microarray containing over 50 different structures. […] ScFv-based competitive ELISA. Competitive ELISAs were established with each of the three scFvs examined using as standard the free Gal-α-(1→3)-Gal disaccharide within the concentration range 0.001 to 10000 μg/ml (2.93 nM to 29.3 mM). […] A panel of 21 related sugars were tested in the scFv-based competitive assays (Table 1). […] All three scFvs were more reactive to the disaccharide than Gal-α-(1,3)-Gal-containing trisaccharides, as shown by lower inhibitory activity of the trisaccharides and supporting the results obtained in the direct ELISA.

Data set [3] in a line: Near UV circular dichroism interaction study with disaccharides. It counts as binding. The settings on record: pH 7.2, 20° C. On the procedure: The scFvs A4, A11 and G12 were used to check their interaction with Galα(1,3)Galβ1-OMe (Carbosynth) and with melibiose, the latter as negative control.
(§1) Two types of experiments were performed: firstly, the near UV circular dichroism (CD) spectra of the scFvs in the absence and presence of 4 mM of both disaccharides have been compared. Secondly, the effect of the disaccharides on the thermal stability of the scFvs has been studied.
(§2) Samples were diluted in NaPi (10 mM)-NaCl (150 mM) pH 7.2 and either concentrated by ultrafiltration twice (for small amounts) or exhaustively dialyzed. CD spectra were acquired at 20° C. in a J-810 spectropolarimeter, equipped with a Peltier temperature control system, using a bandwidth of 1 nm, a scan rate of 20 nm/min and a response time of 4 s, collecting data every 0.2 nm and 3 accumulations for each spectrum. Near-UV spectra were registered at around 1.0 mg ml^−1 protein concentration in 1-cm path-length cells while far-UV spectra were recorded in 0.1 cm path-length quartz cells at a protein concentration of around 0.2 mg ml^−1. For all CD spectra, the corresponding buffer baseline was subtracted. Thermal stability was evaluated by measuring ellipticity changes at 208 nm while increasing temperature from 20 to 90° C., with a constant rate of 40° C./h. Ellipticity changes were collected every 0.2° C. and spectra were collected every 10° C. The thermal denaturation profiles were fitted to a sigmoidal function using the equation:—
For orientation: CD spectra are sensitive to the conformation of chiral molecules.

Data set [4] in a line: Thermal denaturation monitored by far UV CD ellipticity. It counts as physicochemical. Particulars: for HD / Tm: λ 208. The procedure: as §1
as §2, with “Thermal stability was evaluated by measuring ellipticity changes at 208 nm while increasing temperature from 20 to 90° C., with a constant rate of 40° C./h.” left out
where Θ(T) represents the ellipticity at temperature T (Kelvin), ΘN the ellipticity of the native protein, n the number of transitions, ΔΘ1 the ellipticity increment of transition i, R the gas constant and Tmi and HDi the temperature at the transition midpoint (melting temperature) and the parameter which describes the cooperativity (slope) of the corresponding transition, respectively.
In the second set of experiments, the thermal stability of the scFvs in the absence and presence of the disaccharides was investigated. With this type of experiment, we were able to get: 1) the far UV CD spectra at increasing temperatures, which gave information on changes in the secondary structure of the proteins upon heating and 2) the profile of the change in ellipticity at a certain wavelength, also with increasing temperatures, that allowed the calculation of the temperature of transition (Tm). Direct comparison of the Tm in the absence and presence of sugar provided information about the effect of the sugar on the scFvs, a thermal stabilisation (i.e. an increase in the Tm in the presence of the sugar) being indicative of interaction.

The mark [5] stands for this setting: 4 mM melibiose (negative control).
Where [6] appears, read: in the presence of 4 mM Galα(1,3)Galβ1-OMe, 208 nm.

B1: scFv A11: chicken anti-Gal-α-(1→3)-Gal single chain antibody fragment, Seq Id No. 4; clone D9 has the same sequence (protein)
scFv: QAALTQPSSVSANPGETVKITCSGGGSYGGSYYYGWYQQKSPGSAPVTVIYSNDNRPSDIPSRFSGSTSGSTSTLTITGVQVDDEAVYYCGTYDSSYVGIFGAGTALTVLGQSSRSSGGGSSGGGGSAVTLDESGGGLQTPGGGLSLVCKASGFTFSSYSMQWVRQTPGKGLEFVAGIGYSDSYTYFGPAVKGRATISRDNGQNTVRLQLNNLRAEDTATYYCARSADTIYGCTHPWCSADNIDAWGHGTEVIVSSTSGQAGQ
modifications: Synthetic protein sequence forscFv-A11 antibody fragment for detecting non-human Gal-alpha(1-3)-Gal
B1: the ED50 in data set [1] (listed as A11) is 1225 μg/ml and 3.58 mM. For the same molecule, in data set [2], the “Specificity for the Gal-α-(1→3)-Gal epitope compared with GS-1-B4” value was “much higher specificity”. The “Change of near UV CD spectrum” value in data set [3] (4 mM Galα(1,3)Galβ1-OMe) and in data set [3] (setting [5]) was “No significant changes were observed” each time. In addition, the values for the HD in data set [4] (+4 mM Galα(1,3)Galβ1-OMe), in data set [4] (+4 mM melibiose) and in data set [4] (Pure scFv) were 95 ± 6 kcal/mol, 141 ± 7 kcal/mol and 134 ± 7 kcal/mol, respectively. The Tm in data set [4] (+4 mM Galα(1,3)Galβ1-OMe) was determined as 69.0 ± 0.2 °C; in data set [4] (+4 mM melibiose) it was 61.1 ± 0.1 °C; in data set [4] (Pure scFv), 61.3 ± 0.1 °C. Further, the “Change in cooperativity (HD)” value in data set [4] (setting [6]) was around 38.5 kcal/mol. In addition, the “Stabilisation (increase in Tm)” value in data set [4] (setting [6]) was determined as 7.7 °C.

B2: scFv A4: chicken anti-Gal-α-(1→3)-Gal single chain antibody fragment, Seq Id No. 2 (protein)
scFv: QAALTQPSSVSTNPGGTVKITCSGGNGNYGWYQQKSPGSAPVTVIYSNNKRPSDIPSRFSGSKSGSTATLTITGVQVDDEAVYFCGAYDNTYVGVFGAGTTLTVLGQSSRSSSGGGSSGGGGSAVTLDESGGGLQTPGGGLSLVCKASGFTFSSYSMQWVRQTPGKGLEFVAGIGYSDSYTYFGPAVKGRATISRDNGQNTVRLQLNNLRAEDTATYYCARSADTIYGCTHPWCSADNIDAWGHGTEVIVSSTSGQAGQ
modifications: Synthetic protein sequence for scFv-A4 antibody fragment for detecting non-human Gal-alpha(1-3)-Gal
For the molecule B2, the “ED50, composite standard curve” value in data set [1] (composite curve from 9 independent runs, FIG. 7, listed as A4) is 327 μg/ml and 0.95 mM. Also, the ED50 in data set [1] (listed as A4) is 311 μg/ml and 0.91 mM. The “Specificity for the Gal-α-(1→3)-Gal epitope compared with GS-1-B4” value in data set [2] was “much higher specificity”. Also, the “Change of near UV CD spectrum” value in data set [3] (4 mM Galα(1,3)Galβ1-OMe) is on record as “molar ellipticity per residue in general decreased”; in data set [3] (setting [5]), “remained unchanged”. Further, the HD was found to be 52 ± 3 kcal/mol in data set [4] (+4 mM Galα(1,3)Galβ1-OMe) and 57 ± 3 kcal/mol in data set [4] (Pure scFv). Besides, the figures for the Tm in data set [4] (+4 mM Galα(1,3)Galβ1-OMe) and in data set [4] (Pure scFv) were 74.8 ± 0.3 °C and 64.6 ± 0.2 °C, respectively. Moreover, the “Change in cooperativity (HD)” value in data set [4] (setting [6]) is around 4.7 kcal/mol.
